B1: Tumor protein p73, residues 487 to 549; numbered along this chain, O15350 (parent)
chain: YHADPSLVSFLTGLGCPNCIEYFTSQGLQSIYHLQNLTIEDLGALKIPEQYRMTIWRGLQDLK

± gives the uncertainty stated by the source.

The data set covers variants of B1. As to the kind of experiment: abundance fitness (aPCA) (normalised: wild type 0, dead -1); higher = more abundant; growth selection in yeast, the domain comes from the species named. Particulars: Homo sapiens.
Consider YHADPSLVSTLTGLGCPNCIEYFTSQGLQSIYHLQNLTIEDLGALKIPEQYRMTIWRGLQDLK, for which the abundance fitness was -0.823 ± 0.11. The value for YHADPSLVSNLTGLGCPNCIEYFTSQGLQSIYHLQNLTIEDLGALKIPEQYRMTIWRGLQDLK was -0.804 ± 0.35; that for YHADPSLVSPLTGLGCPNCIEYFTSQGLQSIYHLQNLTIEDLGALKIPEQYRMTIWRGLQDLK was -0.748 ± 0.24; that for YHADPSLVSALTGLGCPNCIEYFTSQGLQSIYHLQNLTIEDLGALKIPEQYRMTIWRGLQDLK was -0.535 ± 0.069. The value for YHADPSLVYFLTGLGCPNCIEYFTSQGLQSIYHLQNLTIEDLGALKIPEQYRMTIWRGLQDLK was -0.237 ± 0.04.

On to YHADPSLVLFLTGLGCPNCIEYFTSQGLQSIYHLQNLTIEDLGALKIPEQYRMTIWRGLQDLK, for which the abundance fitness was -0.131 ± 0.039. The value for YHADPSLVAFLTGLGCPNCIEYFTSQGLQSIYHLQNLTIEDLGALKIPEQYRMTIWRGLQDLK was -0.101 ± 0.043; that for YHADPSLVPFLTGLGCPNCIEYFTSQGLQSIYHLQNLTIEDLGALKIPEQYRMTIWRGLQDLK was -0.134 ± 0.054. The value for YHADPSLVGFLTGLGCPNCIEYFTSQGLQSIYHLQNLTIEDLGALKIPEQYRMTIWRGLQDLK was 0.103 ± 0.028; that for YHADPSLVFFLTGLGCPNCIEYFTSQGLQSIYHLQNLTIEDLGALKIPEQYRMTIWRGLQDLK was -0.194 ± 0.056; that for YHADPSLVTFLTGLGCPNCIEYFTSQGLQSIYHLQNLTIEDLGALKIPEQYRMTIWRGLQDLK was -0.052 ± 0.049. Take YHADPSLVEFLTGLGCPNCIEYFTSQGLQSIYHLQNLTIEDLGALKIPEQYRMTIWRGLQDLK: the abundance fitness was -0.019 ± 0.04. YHADPSLVMFLTGLGCPNCIEYFTSQGLQSIYHLQNLTIEDLGALKIPEQYRMTIWRGLQDLK: the abundance fitness was -0.207 ± 0.054. YHADPSLVIFLTGLGCPNCIEYFTSQGLQSIYHLQNLTIEDLGALKIPEQYRMTIWRGLQDLK: the abundance fitness was -0.347 ± 0.13.

Regarding YHADPSLVCFLTGLGCPNCIEYFTSQGLQSIYHLQNLTIEDLGALKIPEQYRMTIWRGLQDLK, the abundance fitness is -0.312 ± 0.059. YHADPSLVDFLTGLGCPNCIEYFTSQGLQSIYHLQNLTIEDLGALKIPEQYRMTIWRGLQDLK: the abundance fitness was -0.114 ± 0.098.

Turning to YHADPSLVWFLTGLGCPNCIEYFTSQGLQSIYHLQNLTIEDLGALKIPEQYRMTIWRGLQDLK, the abundance fitness is -0.411 ± 0.048. The value for YHADPSLVVFLTGLGCPNCIEYFTSQGLQSIYHLQNLTIEDLGALKIPEQYRMTIWRGLQDLK was -0.373 ± 0.039. As for YHADPSLVHFLTGLGCPNCIEYFTSQGLQSIYHLQNLTIEDLGALKIPEQYRMTIWRGLQDLK, the figure is -0.345 ± 0.16. As for YHADPSLVRFLTGLGCPNCIEYFTSQGLQSIYHLQNLTIEDLGALKIPEQYRMTIWRGLQDLK, the figure is 0.048 ± 0.023; as for YHADPSLVNFLTGLGCPNCIEYFTSQGLQSIYHLQNLTIEDLGALKIPEQYRMTIWRGLQDLK, 0.086 ± 0.074; as for YHADPSLVKFLTGLGCPNCIEYFTSQGLQSIYHLQNLTIEDLGALKIPEQYRMTIWRGLQDLK, -0.017 ± 0.042. Turning to YHADPSLVQFLTGLGCPNCIEYFTSQGLQSIYHLQNLTIEDLGALKIPEQYRMTIWRGLQDLK, the abundance fitness was found to be 0.095 ± 0.04. As for YHADPSFVSFLTGLGCPNCIEYFTSQGLQSIYHLQNLTIEDLGALKIPEQYRMTIWRGLQDLK, the figure is -0.266 ± 0.073; as for YHADPSAVSFLTGLGCPNCIEYFTSQGLQSIYHLQNLTIEDLGALKIPEQYRMTIWRGLQDLK, -0.257 ± 0.046; as for YHADPSQVSFLTGLGCPNCIEYFTSQGLQSIYHLQNLTIEDLGALKIPEQYRMTIWRGLQDLK, -1.01 ± 0.12. The value for YHADPSRVSFLTGLGCPNCIEYFTSQGLQSIYHLQNLTIEDLGALKIPEQYRMTIWRGLQDLK was -1.01 ± 0.074. The value for YHADPSKVSFLTGLGCPNCIEYFTSQGLQSIYHLQNLTIEDLGALKIPEQYRMTIWRGLQDLK was -0.984 ± 0.16; that for YHADPSTVSFLTGLGCPNCIEYFTSQGLQSIYHLQNLTIEDLGALKIPEQYRMTIWRGLQDLK was -0.157 ± 0.053. YHADPSEVSFLTGLGCPNCIEYFTSQGLQSIYHLQNLTIEDLGALKIPEQYRMTIWRGLQDLK: the abundance fitness is -0.512 ± 0.095. As for YHADPSWVSFLTGLGCPNCIEYFTSQGLQSIYHLQNLTIEDLGALKIPEQYRMTIWRGLQDLK, the figure is -0.847 ± 0.08; as for YHADPSCVSFLTGLGCPNCIEYFTSQGLQSIYHLQNLTIEDLGALKIPEQYRMTIWRGLQDLK, -0.4 ± 0.062. The value for YHADPSSVSFLTGLGCPNCIEYFTSQGLQSIYHLQNLTIEDLGALKIPEQYRMTIWRGLQDLK was -0.831 ± 0.06; that for YHADPSHVSFLTGLGCPNCIEYFTSQGLQSIYHLQNLTIEDLGALKIPEQYRMTIWRGLQDLK was -0.969 ± 0.24. The value for YHADPSMVSFLTGLGCPNCIEYFTSQGLQSIYHLQNLTIEDLGALKIPEQYRMTIWRGLQDLK was -0.023 ± 0.04. For YHADPSGVSFLTGLGCPNCIEYFTSQGLQSIYHLQNLTIEDLGALKIPEQYRMTIWRGLQDLK, the abundance fitness is -0.936 ± 0.071. Regarding YHADPSPVSFLTGLGCPNCIEYFTSQGLQSIYHLQNLTIEDLGALKIPEQYRMTIWRGLQDLK, the abundance fitness is -0.782 ± 0.11. On to YHADPSVVSFLTGLGCPNCIEYFTSQGLQSIYHLQNLTIEDLGALKIPEQYRMTIWRGLQDLK, for which the abundance fitness is -0.049 ± 0.033. As for YHADPYLVSFLTGLGCPNCIEYFTSQGLQSIYHLQNLTIEDLGALKIPEQYRMTIWRGLQDLK, the figure is -0.197 ± 0.16; as for YHADPVLVSFLTGLGCPNCIEYFTSQGLQSIYHLQNLTIEDLGALKIPEQYRMTIWRGLQDLK, -0.027 ± 0.043. The value for YHADPWLVSFLTGLGCPNCIEYFTSQGLQSIYHLQNLTIEDLGALKIPEQYRMTIWRGLQDLK was -0.212 ± 0.061. As for YHADPTLVSFLTGLGCPNCIEYFTSQGLQSIYHLQNLTIEDLGALKIPEQYRMTIWRGLQDLK, the figure is -0.052 ± 0.04.

Consider YHADPRLVSFLTGLGCPNCIEYFTSQGLQSIYHLQNLTIEDLGALKIPEQYRMTIWRGLQDLK, for which the abundance fitness came to 0.013 ± 0.035.

The values are drawn from the Human Domainome abundance scans (Beltran et al. 2025).
